According to US7625718B2, “SVCT2 transporters expressed in blood brain barrier cells” (XenoPort, Inc., priority 2005, dated 2009):

Test system: T1, O=C1O[C@H]([C@@H](O)CO)C(O)=C1O
T1 construct: expressed in transfected cells; host or cells: HEK-TREx cells, tetracycline-induced
Experiment: hSVCT2 direct uptake assay in HEK-TREx-hSVCT2 cells (LC-MS-MS)
Type: cell-based, human
Details: other: HEK-TREx-hSVCT2 cells induced to express hSVCT2
Method: A modified direct uptake assay was developed to determine the ability of test compounds to be transported into HEK-TREx cells induced to over-express hSVCT2. Four concentrations (bracketing the affinity as measured by competition assays) per compound were routinely tested. Non-specific uptake was determined by measuring the uptake into cells not induced to express the transporter (“no tet”).
The direct uptake assays were prepared as follows: Compounds were prepared for assay by diluting a 100 mM stock concentration (in DMSO or water, depending on compound solubility) to the appropriate working concentration. Typically, four concentrations bracketing the IC50 were tested. The highest test concentration for each compound was made in an Eppendorf tube and diluted into HBSS. The samples were robustly vortexed and centrifuged for 10 minutes at 13,200 rpm to spin down any precipitate. The supernatant from these samples (˜150 μl/well) was carefully removed and placed into six wells of row A (cmpd 1: A1-6; cmpd 2: A7-12) or row E (cmpd 3: E1-6; cmpd 4: E7-12) of a 96-well polypropylene “compound” plate. Three additional 2-fold dilutions were made in the subsequent rows (B-D or […]) in HBSS. […]

Substance: hSVCT2 (Homo sapiens)
- Km: 14 µM
